From article PMC10470544, “Pathogen-specific structural features of Candida albicans Ras1 activation complex: uncovering new antifungal drug targets” (mBio, 2023)

Key:
[1] = target: T1, catalytic region of CaCdc25 (REM-CAT tandem) (Candida albicans, UniProt P43069); assay: ITC; recombinant CaCdc25 (REM-CAT tandem) titrated with CaRas1-FL or G-domain, MicroCal VP-ITC, single binding site model; settings: both partners purified
T1 construct: PDB 7NZZ holds this construct; also called REM-CAT tandem of CaCdc25; catalytic region of the CaRas1 guanine nucleotide exchange factor CaCdc25
T1 sequence: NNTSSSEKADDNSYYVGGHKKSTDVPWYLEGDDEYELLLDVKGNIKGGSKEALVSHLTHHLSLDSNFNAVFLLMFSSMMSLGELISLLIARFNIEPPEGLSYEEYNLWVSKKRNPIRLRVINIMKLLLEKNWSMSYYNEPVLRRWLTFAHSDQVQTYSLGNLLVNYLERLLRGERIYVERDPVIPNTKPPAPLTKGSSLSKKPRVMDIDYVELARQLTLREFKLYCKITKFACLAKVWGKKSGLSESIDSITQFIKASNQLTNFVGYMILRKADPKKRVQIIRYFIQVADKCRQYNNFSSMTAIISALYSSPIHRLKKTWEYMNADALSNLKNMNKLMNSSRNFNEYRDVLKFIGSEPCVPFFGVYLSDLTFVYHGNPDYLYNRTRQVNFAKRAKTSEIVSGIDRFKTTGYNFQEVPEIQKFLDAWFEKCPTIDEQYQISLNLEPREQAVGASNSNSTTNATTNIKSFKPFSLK

[2] = target: T1, catalytic region of CaCdc25 (REM-CAT …); assay: SAXS; small angle X-ray scattering in solution, P12 beamline (EMBL, DESY), profiles extrapolated to infinite dilution; oligomeric state and stoichiometry deduced from the estimated masses (Table S1); settings: both partners purified

Row | Binder | Kd [1] [µM] | stoichiometry N [2]
1 | isolated G-domain of CaRas1 (1–166) (domain or fragment, Ras-like protein 1 (CaRas1), Candida albicans, GTPase domain (G-domain), residues 1-166; Monomeric in solution by SAXS; also called CaRas1 G-domain) MLREYKLVVVGGGGVGKSALTIQLIQSHFVDEYDPTIEDSYRKQCTIDDQQVLLDVLDTAGQEEYSAMREQYMRTGEGFLLVYSINSLNSFQELNSFYDQILRVKDSDNVPVLVVGNKCDLEMERQVSYEDGLALANSFNCPFLETSAKQRINVEEAFYGLVRNIN | 9 | 1
2 | full-length Candida albicans Ras-like protein 1 (CaRas1-FL, 1–290) (natural protein, Ras-like protein 1 (CaRas1), Candida albicans, full-length protein, residues 1-290 (G-domain 1-166, hypervariable region 167-290); Monomeric in solution by SAXS; also called full-length CaRas1) MLREYKLVVVGGGGVGKSALTIQLIQSHFVDEYDPTIEDSYRKQCTIDDQQVLLDVLDTAGQEEYSAMREQYMRTGEGFLLVYSINSLNSFQELNSFYDQILRVKDSDNVPVLVVGNKCDLEMERQVSYEDGLALANSFNCPFLETSAKQRINVEEAFYGLVRNINQYNAKIAEAEKQQQQQQQQQNANQQGQDQYGQQKDNQQSQFNNQINNNNNTSAVNGGVSSDGIIDQNGNGGVSSGQANLPNQSQSQSQRQQQQQQQEPQQQSENQFSGQKQSSSKSKNGCCVIV | 9 | 1
